Measurements taken from PMC12448032.

Target: PD-L1 (UniProt Q9EP73)
UniProt Q9EP73, sequence (Q9EP73 19-290): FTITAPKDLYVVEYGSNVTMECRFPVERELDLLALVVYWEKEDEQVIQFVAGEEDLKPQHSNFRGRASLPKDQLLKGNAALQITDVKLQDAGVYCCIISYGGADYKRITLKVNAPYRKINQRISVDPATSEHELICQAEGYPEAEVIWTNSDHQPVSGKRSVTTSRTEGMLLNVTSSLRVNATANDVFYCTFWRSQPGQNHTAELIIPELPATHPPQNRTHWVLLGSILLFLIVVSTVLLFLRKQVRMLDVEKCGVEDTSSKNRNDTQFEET

“programmed cell death-1 (PD1), mouse, overexpressed in 293 T cells (from UniProt Q02242 25-288) (receptor)” was tested, and the uptake by K7M2 cells of BI@PCM NPs (PD1-high membrane) compared to B@CM NPs (PD1-low membrane), flow cytometry, 4 h was 2.1 fold.
